Test results as given in patent WO2002045743A2 (dated 2002).

T1: S87 peptide
T1 construct: Synthetic HVR 1 peptide
T1 peptide: CTGFSKHNNMGSQQKV

B1: mAb 2P24 (antibody, V domains shown)
V domain 1: EFQLQQSGAELVRPGPLVTLSCKASGFNIKDYYMNWVKQRPEQGLEWIGRIDPKNGNALYDPKFQDKARITADTSSNTAYLQLNSLTSEATAVYYCSSGWLDYWGQGTSLAVYS
V domain 2: DIVMTQSPASLAVFRGQRATISYRASKSVSTSGYSYMHWNQQKPGQPPRLLIYLVSNLESGVPARFSGSGSGTDFTLNIHPVEEEDAATYYCQHIRELTAFGGGTK
B2: mAb 15H4 (antibody, V domains shown)
VH: QVQLQQSGAELARPGASVKLSCKASGYTFTRYWMQWVKQKPGQGLEWIGAIYCGDGDTRFTQKFKGKATLTADKSSSTAYMQLSNLASEDSAVYYCVIYGNYYDAMDYWGQGTSVTVSS
VL: DIVMTQAPLSMPVSLGDQASISGRSSQSLVHSNGNTYLHWYLQKPGQSPKLLIHKVSKRFSGVPDRFSGSGSGTDFTLKIRRVEAEDLGVYFCSQNTHVPFTFGGGTK

Tests used:
[1] = target: S67 peptide; assay: IAsys biosensor, BSA-HVR1 peptide conjugate
[2] = target: S85 peptide; assay: IAsys biosensor, BSA-HVR1 peptide conjugate
[3] = target: DH2 peptide; assay: peptide EIA, Nunc-Immuno and CovaLab plates
[4] = target: EH1 peptide; assay: peptide EIA, Nunc-Immuno and CovaLab plates
[5] = target: G3895 peptide; assay: peptide EIA, Nunc-Immuno and CovaLab plates
[6] = target: G4309 peptide; assay: peptide EIA, Nunc-Immuno and CovaLab plates
[7] = target: G4720 peptide; assay: peptide EIA, Nunc-Immuno and CovaLab plates
[8] = target: S52 peptide; assay: peptide EIA, Nunc-Immuno and CovaLab plates
[9] = target: S53 peptide; assay: peptide EIA, Nunc-Immuno and CovaLab plates
[10] = target: S54 peptide; assay: peptide EIA, Nunc-Immuno and CovaLab plates
[11] = target: S66 peptide; assay: peptide EIA, Nunc-Immuno and CovaLab plates
[12] = target: S67 peptide; assay: peptide EIA, Nunc-Immuno and CovaLab plates
[13] = target: S82 peptide; assay: peptide EIA, Nunc-Immuno and CovaLab plates
[14] = target: S83 peptide; assay: peptide EIA, Nunc-Immuno and CovaLab plates
[15] = target: S85 peptide; assay: peptide EIA, Nunc-Immuno and CovaLab plates
[16] = target: US1 peptide; assay: peptide EIA, Nunc-Immuno and CovaLab plates
[17] = target: T1, S87 peptide; assay: peptide EIA, Nunc-Immuno and CovaLab plates

Binder | Kd [1] | Kd [2] | EIA Sample/Cutoff ratio (S/CO) [3] | EIA Sample/Cutoff ratio (S/CO) [4] | EIA Sample/Cutoff ratio (S/CO) [5] | EIA Sample/Cutoff ratio (S/CO) [6] | EIA Sample/Cutoff ratio (S/CO) [7] | EIA Sample/Cutoff ratio (S/CO) [8] | EIA Sample/Cutoff ratio (S/CO) [9] | EIA Sample/Cutoff ratio (S/CO) [10] | EIA Sample/Cutoff ratio (S/CO) [11] | EIA Sample/Cutoff ratio (S/CO) [12] | EIA Sample/Cutoff ratio (S/CO) [13] | EIA Sample/Cutoff ratio (S/CO) [14] | EIA Sample/Cutoff ratio (S/CO) [15] | EIA Sample/Cutoff ratio (S/CO) [16] | EIA Sample/Cutoff ratio (S/CO) [17]
B1 | 18.1 nM | 24.3 nM | 18.6 S/CO | 24.8 S/CO | 25.4 S/CO | 1.1 S/CO | 24 S/CO | 1.4 S/CO | 5.7 S/CO | 18.9 S/CO | 12.7 S/CO | 24.7 S/CO | 16.1 S/CO | 11.5 S/CO | 25.6 S/CO |  | 
B2 | 110 nM | 58.5 nM | 12.9 S/CO | 16.9 S/CO | 7.9 S/CO |  | 14.2 S/CO | 1.9 S/CO |  | 3.9 S/CO | 24.8 S/CO | 25.1 S/CO | 3.3 S/CO | 2.3 S/CO | 24.4 S/CO | 21 S/CO | 8.9 S/CO
